In US20100291108A1 (published 2010):

B1: chimeric anti-IREM-1 monoclonal antibody 871.1 (antibody, human IgG1, V domains shown)
VH: EVKLVESGGGLVQPGGSLSLSCAASGFTFTDYYMSWVRQPPGMAPEWLGFIRNKANGYTTEYSASVKGRFTISRDDSQSILYLQMNALRAEDSATYYCAREDYGSSWGYYAMDCWGQGTSVTVSS
VL: DIVMTQSQKFMSTSVGDRVSVTCKASQNVDTNVAWYQQKPGQSPKALLYSASYRHSGVPDRFTGSGSETDFTLTITNVQSEDLAEYFCQQYNSFPLTFGSGTKLEIRR
notes: The CDC assays use an IgG2b isotype control, so the murine form may have been used there; No cleavage site is stated; also called mAb 871.1; VL1VH1
B2: chimeric anti-IREM-1 monoclonal antibody B11 (antibody, human IgG1, V domains shown)
VH: QIQLVQSGPELEKPGETVKISCKASGYTFTNYPMHWVKQAPGKGLKWMGWINTYSGVPTYADDFKGRFAFSLETSASTAYLQINNLKNEDMATYFCARMDYYSNGFNYWGQGTTLTVSS
VL: DVLMTQTPLSLPVSLGDQASISCRSSQSIVHSNGNTYLEWYLQKPGQSPKLLIYKVSNRFSGVPDRFSGSGSGTDFTLKISRVEAEDLGVYYCFQGSHVPWTFGGGTKLEIKR
notes: No cleavage site is stated; also called mAb B11; VL2VH2
B3: chimeric anti-IREM-1 monoclonal antibody D12 (antibody, human IgG1, V domains shown)
VH: EIQLQQSGAELVRPGTSVKVSCKASGYAFTNYLIEWVKQRPGQGLEWIGVINPGSGGSYYNEKFKGKTTLTADKSSSTAYMQLSSLAFDDSAVYFCARSESNYSYYYAMDYWGQGTSVIVSS
VL: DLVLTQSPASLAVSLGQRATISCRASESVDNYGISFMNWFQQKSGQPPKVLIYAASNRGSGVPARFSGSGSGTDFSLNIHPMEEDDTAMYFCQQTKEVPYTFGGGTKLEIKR
notes: No cleavage site is stated; also called mAb D12; clone #D12

What was measured:
[1] = molecular target: T1, IREM-1Δ2 deletion construct (human); assay: flow cytometry on 293 cells expressing the construct
T1 construct: Deletion construct of IREM-1 expressed in 293 cells
T1 chain: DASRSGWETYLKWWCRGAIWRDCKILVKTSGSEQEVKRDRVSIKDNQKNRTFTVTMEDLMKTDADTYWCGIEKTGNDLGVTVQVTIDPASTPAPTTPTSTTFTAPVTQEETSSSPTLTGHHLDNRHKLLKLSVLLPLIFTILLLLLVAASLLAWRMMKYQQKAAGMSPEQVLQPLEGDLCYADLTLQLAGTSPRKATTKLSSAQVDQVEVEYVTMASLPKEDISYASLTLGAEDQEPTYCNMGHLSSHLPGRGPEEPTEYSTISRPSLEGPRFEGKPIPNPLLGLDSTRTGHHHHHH

[2] = molecular target: T2, IREM-1Δ4 deletion construct (human); assay: as above
T2 construct: Deletion construct of IREM-1 expressed in 293 cells
T2 chain: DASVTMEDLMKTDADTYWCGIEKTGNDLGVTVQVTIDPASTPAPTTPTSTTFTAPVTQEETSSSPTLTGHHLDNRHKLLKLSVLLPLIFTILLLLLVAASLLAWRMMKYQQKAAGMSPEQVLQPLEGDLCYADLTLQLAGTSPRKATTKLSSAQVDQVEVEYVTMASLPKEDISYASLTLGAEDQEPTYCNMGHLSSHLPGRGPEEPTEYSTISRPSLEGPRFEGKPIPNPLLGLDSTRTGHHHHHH

[3] = molecular target: T3, IREM-1Δ3 deletion construct (human); assay: as above
T3 construct: Deletion construct of IREM-1 expressed in 293 cells
T3 chain: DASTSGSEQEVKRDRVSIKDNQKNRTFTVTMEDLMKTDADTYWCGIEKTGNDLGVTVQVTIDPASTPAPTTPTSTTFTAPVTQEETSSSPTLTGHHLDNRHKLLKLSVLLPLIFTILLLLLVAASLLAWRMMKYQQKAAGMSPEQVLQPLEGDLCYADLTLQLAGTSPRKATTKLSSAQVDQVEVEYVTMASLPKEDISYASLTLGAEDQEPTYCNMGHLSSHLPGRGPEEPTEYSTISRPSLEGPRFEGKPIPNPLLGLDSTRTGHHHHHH

[4] = molecular target: T4, IREM-1Δ5 deletion construct (human); assay: as above
T4 construct: Deletion construct of IREM-1 expressed in 293 cells
T4 chain: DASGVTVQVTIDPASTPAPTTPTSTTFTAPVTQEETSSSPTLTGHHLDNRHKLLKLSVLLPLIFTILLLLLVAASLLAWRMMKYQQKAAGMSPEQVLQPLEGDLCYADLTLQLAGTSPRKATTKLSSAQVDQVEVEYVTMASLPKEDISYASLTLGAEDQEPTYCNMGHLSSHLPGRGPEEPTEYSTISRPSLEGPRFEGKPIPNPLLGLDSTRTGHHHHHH

[5] = molecular target: T5, IREM-1Δ6 deletion construct (human); assay: as above
T5 construct: Deletion construct of IREM-1 expressed in 293 cells
T5 chain: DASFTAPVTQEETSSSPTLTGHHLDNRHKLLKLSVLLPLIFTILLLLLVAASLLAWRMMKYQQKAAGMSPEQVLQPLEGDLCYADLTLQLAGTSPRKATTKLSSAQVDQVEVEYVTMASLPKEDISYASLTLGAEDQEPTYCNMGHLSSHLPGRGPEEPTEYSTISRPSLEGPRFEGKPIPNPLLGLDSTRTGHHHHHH

[6] = molecular target: IREM-1Δ1 deletion construct (human); assay: as above
[7] = molecular target: T6, IREM-1-ECD-V5His recombinant protein (human, UniProt Q8TDQ1 20-156); assay: SPR (Biacore), mAb captured on the chip, antigen in solution, 25 C
T6 construct: Produced in HEK-293 cells and purified on a Ni column; also called IREM-1 V5-6His protein; recombinant IREM-1 protein containing the complete extracellular domain; not shown: C-terminal V5-His tag

[8] = molecular target: human IREM-1 (full-length, on cells) (human, UniProt Q8TDQ1 20-290); assay: cell-based or functional assay
[9] = molecular target: T6, IREM-1-ECD-V5His recombinant protein; assay: SPR (Biacore), mAb captured on the chip, antigen in solution, 25 C; KD = kd/ka
Method: Kinetic rate constants (kₐ and kd) were determined using surface plasmon resonance and affinities (KD) were then calculated from the rate constants (kd/kₐ). Surface plasmon resonance was carried out on a BlAcore system (Biacore International AB, Uppsala, Sweden). […] Each of 5 concentrations was tested twice except the highest concentration which was tested 5 times in total, two times with a short dissociation of 300 seconds followed by three times with a dissociation of 60 minutes. The data sets from the long dissociation experiments were globally fit with the shorter association experiments to determine binding constants for the interactions. The analysis was carried out in HBS, pH 7.4 buffer at 25° C.

Binder	binding result [1]	binding result [2]	binding result [3]	binding result [4]	binding result [5]	binding result [6]	kon [7] [M⁻¹ s⁻¹]	CDC (complement-dependent cytotoxicity) EC50 on 293 cells expressing IREM-1 [8] [ng/mL]	CDC EC50 on AML cell line HL-60 [8] [ng/mL]	CDC EC50 on stage M1 AML patient sample [8] [ng/mL]	koff [7] [s⁻¹]	Kd [9] [nM]
B1	no binding	no binding	no binding	no binding	no binding	binds	228000	~10	1970 to 3840	0.0062	–	–
B2	no binding	no binding	no binding	no binding	no binding	binds	282000	–	–	–	0.00066	2.3
B3	no binding	no binding	no binding	no binding	no binding	binds	255000	–	–	–	0.00072	2.8
